From PMC9359175

Experiments:
[1] = molecular target: 5HB-H2 (SARS-CoV-2 5-helix bundle, optimal construct) (SARS-CoV-2) (UniProt P0DTC2); assay: BLI; pH 4.5
[2] = molecular target: 5HB-H2 (SARS-CoV-2 5-helix bundle, optimal construct) (SARS-CoV-2) (UniProt P0DTC2); assay: BLI; pH 5
[3] = molecular target: 5HB-H2 (SARS-CoV-2 5-helix bundle, optimal construct) (SARS-CoV-2) (UniProt P0DTC2); assay: ITC; […]; 298 K; 20 mM HEPES pH 7.5, 150 mM NaCl; […]
[4] = molecular target: 5HB-H2 (SARS-CoV-2 5-helix bundle, optimal construct) (SARS-CoV-2) (UniProt P0DTC2); assay: crystal structure
[5] = molecular target: 5HB-H2 (SARS-CoV-2 5-helix bundle, optimal construct) (SARS-CoV-2) (UniProt P0DTC2); assay: BLI; […]; 20 mM HEPES pH 7.5, 150 mM NaCl, 0.05% Tween 20, 298 K; 1:1 model
[6] = molecular target: 5HB-H2 (SARS-CoV-2 5-helix bundle, optimal construct) (SARS-CoV-2) (UniProt P0DTC2); assay: BLI; […]; 20 mM MES pH 6.0, 150 mM NaCl, 0.05% Tween 20, 298 K; 1:1 model
[7] = molecular target: 5HB-H2 (SARS-CoV-2 5-helix bundle, optimal construct) (SARS-CoV-2) (UniProt P0DTC2); assay: BLI; […]; 20 mM MES pH 5.5, 150 mM NaCl, 0.05% Tween 20, 298 K; 1:1 model

HR2P, 36-mer peptide derived from SARS-CoV-2 S HR2 (D1168-L1203)
Kd [1]: 1.37 nM | Kd [2]: 2.43 nM | Kd [3]: 5.12 nM | stoichiometry N [4]: 1 | Kd [5]: 4.91 nM | Kd [6]: 3.22 nM | Kd [7]: 3.08 nM
